Laboratory results from PMC1181240.

Target: MMLV RT N-terminal fragment (fingers/palm catalytic fragment) (Moloney murine leukemia virus, UniProt P03355 683-937)
Assay: X-ray crystallography

MMLV RT N-terminal fragment (fingers/palm catalytic fragment), sequence (P03355 683-937): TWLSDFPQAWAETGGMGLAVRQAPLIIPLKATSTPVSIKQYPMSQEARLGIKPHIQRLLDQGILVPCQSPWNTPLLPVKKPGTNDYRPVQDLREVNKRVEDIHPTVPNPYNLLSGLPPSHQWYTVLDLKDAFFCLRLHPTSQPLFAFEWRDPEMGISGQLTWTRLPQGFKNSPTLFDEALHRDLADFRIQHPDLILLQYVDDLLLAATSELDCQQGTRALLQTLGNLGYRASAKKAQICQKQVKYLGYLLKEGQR

B1: 16mer d(CTTAATTCGAATTAAG)2 (dsDNA)
DNA 1: CTTAATTCGAATTAAG
DNA 2: CTTAATTCGAATTAAG
B1: binds.
